Experimental findings from US20240376171A1 (Hoffmann-La Roche, published 2024) are described below.

The target in test [1] is T1, PD1 on activated human CD4 and CD8 T cells (human, UniProt Q15116 25-288).
T1 construct: whole, on cells; Endogenous PD1 on CD3/CD28-stimulated T cells; also called human PD1; PD1 receptor
The test can be described thus: flow cytometry, CD3/CD28-activated human PBMCs gated on CD3+CD4+ T cells, PE anti-human Fc secondary antibody; TA constructs pre-incubated with Matriptase, unmasked controls not. As to the method: (§1) Three formats of TA PD1-IL2v molecules and respective controls were assessed for their capacity to bind to activated PD1 positive CD8 T cells and CD4 T cells within PBMCs in comparison to the respective unmasked molecules.
(§2) PBMCs were purchased from Biomex from a healthy donor (Lot 5000729PB). The PBMCs were stimulated for three days with CD3 and CD28 to induce upregulation of PD1 on T cells. Therefore, PBMCs were seeded in medium (RPMI1640, 10% FCS, 2 mM Glutamine) into cell culture flasks that were coated for 1 hour at 37° C. with 1 μg/ml CD3 (clone OKT3, 302914, BioLegend). CD28 was added in solution to the PBMCs at a concentration of 1 μg/ml (clone CD28.2, 302914, BioLegend). After three days, PBMCs were harvested and transferred into a 96 well round bottom plate (200′000 cells per well). The cells were washed with FACS buffer (PBS, 2% FBS, 5 mM EDTA, 0.025% NaN3) and stained with 30 μl of corresponding TA PD1-IL2v constructs in FACS buffer for 30 min at 4° C. Prior to the staining, 20 μg of the TA PD1-IL2v constructs were digested with 4 μl Matriptase (Enzo ˜2.5 U/μl, ALX-201-246-U25, Lot 12152015, or without Matriptase for the unmasked controls) for 2 hours at 37° C. in 40 μl Matriptase buffer (50 mM Tris, 50 mM NaCl, 0.01% Tween 20, pH 9.0). After the staining, the cells were washed twice with FACS buffer to remove unbound molecules. Then 30 μl of the diluted PE anti-human Fc specific secondary antibody (1:50 dilution, 109-116-170, Jackson ImmunoResearch) was added to the cells. After 30 min incubation at 4° C. the cells were washed twice with FACS buffer. To detect T cells, PBMCs were stained with 30 μl of a mixture of CD3 PE/Cyanine7 (clone UCHT1, 300420, BioLegend), CD4 FITC (clone RPA-T4, 300528, BioLegend) and CD8 APC/Cyanine7 (clone HIT8a, 300926, BioLegend) for 30 min at 4° C. The unbound antibodies were removed by washing twice with FACS buffer. Finally the cells resuspended in 150 μl FACS buffer and measured using a BD Fortessa gating on CD3+CD4+ cells (CD4 T cells) and CD3+CD8+ cells (CD8 T cells).
A general note: Flow cytometry measures light scatter and fluorescence of single cells or particles in a stream.

The target in test [2] is T1, PD1 on activated human CD4 and CD8 T …. The test can be described thus: flow cytometry, CD3/CD28-activated human PBMCs gated on CD3+CD8+ T cells, PE anti-human Fc secondary antibody; TA constructs pre-incubated with Matriptase, unmasked controls not. As to the method:
as §1, §2

For test [3] the target is unchanged. In words: flow cytometry on CD3/CD28-activated T cells (CD4 and CD8) within human PBMCs; construct digested with matriptase; PE anti-human Fc secondary. The protocol:
as §2, with “Then 30 μl of the diluted PE anti-human Fc specific secondary antibody (1:50 dilution, 109-116-170, Jackson ImmunoResearch) was added to the cells. After 30 min incubation at 4° C. the cells were washed twice with FACS buffer. To detect T cells, PBMCs were stained with 30 μl of a mixture of CD3 PE/Cyanine7 (clone UCHT1, 300420, BioLegend), CD4 FITC (clone RPA-T4, 300528, BioLegend) and CD8 APC/Cyanine7 (clone HIT8a, 300926, BioLegend) for 30 min at 4° C. The unbound antibodies were removed by washing twice with FACS buffer.” left out

Test [4] shares this target. In words: flow cytometry on CD3/CD28-activated T cells (CD4 and CD8) within human PBMCs; no matriptase; PE anti-human Fc secondary. As to the method:
as §2, with “Then 30 μl of the diluted PE anti-human Fc specific secondary antibody (1:50 dilution, 109-116-170, Jackson ImmunoResearch) was added to the cells. After 30 min incubation at 4° C. the cells were washed twice with FACS buffer. To detect T cells, PBMCs were stained with 30 μl of a mixture of CD3 PE/Cyanine7 (clone UCHT1, 300420, BioLegend), CD4 FITC (clone RPA-T4, 300528, BioLegend) and CD8 APC/Cyanine7 (clone HIT8a, 300926, BioLegend) for 30 min at 4° C. The unbound antibodies were removed by washing twice with FACS buffer.” left out

Test [5] shares this target. In words: flow cytometry, CD3/CD28-activated human PBMCs gated on CD3+CD8+ T cells, FITC anti-mouse Fc secondary antibody; no Matriptase digestion described. As to the method:
(§3) PBMCs were bought from Biomex from a healthy donor (Lot 5000899PB). The PBMCs were stimulated for 3 days with CD3 and CD28 to induce upregulation of PD1 on T cells. Therefore, PBMCs were seeded in medium (RPMI1640, 10% FCS, 2 mM Glutamine) into cell culture flasks that were coated for 1 h at 37° C. with 1 μg/ml CD3 (clone OKT3, 302914, BioLegend). CD28 was added in solution to the PBMCs at a concentration of 1 μg/ml (clone CD28.2, 302914, BioLegend). After three days, PBMCs were harvested and transferred into a 96 well round bottom plate (200′000 cells per well). The cells were washed with FACS buffer (PBS, 2% FBS, 5 mM EDTA, 0.025% NaN3) and stained with 30 μl of corresponding TA PD1-IL2v constructs in FACS buffer for 30 min at 4° C. The cells were washed twice with FACS buffer to remove unbound molecules. Then 30 μl of the diluted FITC anti-mouse Fc specific secondary antibody (1:50 dilution, 115-096-071, Jackson ImmunoResearch) or for the human constructs the diluted FITC anti-human Fc specific secondary antibody (1:50 dilution, 115-096-098, Jackson ImmunoResearch) was added to the cells. After 30 min incubation at 4° C. the cells were washed twice with FACS buffer. […] Finally the cells were resuspended in 150 μl FACs buffer and measured using a BD Fortessa gating on CD3+CD4+ cells (CD4 T cells) and CD3+CD8+ cells (CD8 T cells).

The target is the same in test [6]. The test can be described thus: flow cytometry, CD3/CD28-activated human PBMCs gated on CD3+CD4+ T cells, FITC anti-mouse Fc secondary antibody; no Matriptase digestion described. The protocol:
as §3

T1 sequence (Q15116 25-288): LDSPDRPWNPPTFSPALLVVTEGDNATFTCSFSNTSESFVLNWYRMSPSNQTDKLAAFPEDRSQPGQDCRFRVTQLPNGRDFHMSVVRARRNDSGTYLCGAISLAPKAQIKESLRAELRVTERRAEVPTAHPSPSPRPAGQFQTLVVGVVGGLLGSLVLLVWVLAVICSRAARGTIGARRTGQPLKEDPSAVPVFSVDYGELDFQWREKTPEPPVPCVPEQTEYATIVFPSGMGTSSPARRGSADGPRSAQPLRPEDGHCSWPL

B1: human TA PD1-IL2v, MT204, 2xPQARK, N-term (antibody)
light: DIVMTQSPDSLAVSLGERATINCKASESVDTSDNSFIHWYQQKPGQSPKLLIYRSSTLESGVPDRFSGSGSGTDFTLTISSLQAEDVAVYYCQQNYDVPWTFGQGTKVEIKRTVAAPSVFIFPPSDEQLKSGTASVVCLLNNFYPREAKVQWKVDNALQSGNSQESVTEQDSKDSTYSLSSTLTLSKADYEKHKVYACEVTHQGLSSPVTKSFNRGEC
heavy: EVQLLESGGGLVQPGGSLRLSCAASGFSFSSYTMSWVRQAPGKGLEWVATISGGGRDIYYPDSVKGRFTISRDNSKNTLYLQMNSLRAEDTAVYYCVLLTGRVYFALDSWGQGTLVTVSSASTKGPSVFPLAPSSKSTSGGTAALGCLVKDYFPEPVTVSWNSGALTSGVHTFPAVLQSSGLYSLSSVVTVPSSSLGTQTYICNVNHKPSNTKVDKKVEPKSCDKTHTCPPCPAPEAAGGPSVFLFPPKPKDTLMISRTPEVTCVVVDVSHEDPEVKFNWYVDGVEVHNAKTKPREEQYNSTYRVVSVLTVLHQDWLNGKEYKCKVSNKALGAPIEKTISKAKGQPREPQVCTLPPSRDELTKNQVSLSCAVKGFYPSDIAVEWESNGQPENNYKTTPPVLDSDGSFFLVSKLTVDKSRWQQGNVFSCSVMHEALHNHYTQKSLSLSPG
chain: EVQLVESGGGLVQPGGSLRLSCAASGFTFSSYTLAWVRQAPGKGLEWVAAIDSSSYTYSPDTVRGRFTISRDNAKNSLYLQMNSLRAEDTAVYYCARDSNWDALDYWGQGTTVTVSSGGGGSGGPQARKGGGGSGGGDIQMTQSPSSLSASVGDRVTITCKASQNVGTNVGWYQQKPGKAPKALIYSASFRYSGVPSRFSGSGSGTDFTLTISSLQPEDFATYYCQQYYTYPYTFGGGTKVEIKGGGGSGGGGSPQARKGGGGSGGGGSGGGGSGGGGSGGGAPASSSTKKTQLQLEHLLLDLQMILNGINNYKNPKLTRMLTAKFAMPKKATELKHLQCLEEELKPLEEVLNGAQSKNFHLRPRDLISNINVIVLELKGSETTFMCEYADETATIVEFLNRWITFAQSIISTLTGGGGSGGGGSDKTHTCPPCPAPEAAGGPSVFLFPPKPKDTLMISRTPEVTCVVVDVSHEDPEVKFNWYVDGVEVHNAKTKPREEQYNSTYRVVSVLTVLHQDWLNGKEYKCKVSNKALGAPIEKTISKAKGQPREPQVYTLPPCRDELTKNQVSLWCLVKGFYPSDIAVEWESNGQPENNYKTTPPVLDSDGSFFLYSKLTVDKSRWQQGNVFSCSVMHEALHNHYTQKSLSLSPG
notes: One-armed human PD1-targeted human IgG PG LALA (knobs-into-holes); MT204 scFv-masked IL2v is fused N-terminally to the hinge of the Fc knob chain, with two PQARK sites; also called P1AG9597; P1AG9597-007
Turning to B1, the EC50 (read off the curve) (in general, the concentration giving half of the maximal effect) in test [1] is roughly 2 nM; in test [2] it was roughly 3 nM. Moreover, the “fold binding capacity versus the "in line" and knob/hole formats” value in test [3] was roughly 2 fold.

B2: human PD1-IL2v, unmasked, N-term (antibody, human IgG1, kappa, L234A L235A)
light: B1 light
heavy: EVQLLESGGGLVQPGGSLRLSCAASGFSFSSYTMSWVRQAPGKGLEWVATISGGGRDIYYPDSVKGRFTISRDNSKNTLYLQMNSLRAEDTAVYYCVLLTGRVYFALDSWGQGTLVTVSSASTKGPSVFPLAPSSKSTSGGTAALGCLVKDYFPEPVTVSWNSGALTSGVHTFPAVLQSSGLYSLSSVVTVPSSSLGTQTYICNVNHKPSNTKVDKKVEPKSCDKTHTCPPCPAPEAAGGPSVFLFPPKPKDTLMISRTPEVTCVVVDVSHEDPEVKFNWYVDGVEVHNAKTKPREEQYNSTYRVVSVLTVLHQDWLNGKEYKCKVSNKALGAPIEKTISKAKGQPREPQVCTLPPSRDELTKNQVSLSCAVKGFYPSDIAVEWESNGQPENNYKTTPPVLDSDGSFFLVSKLTVDKSRWQQGNVFSCSVMHEALHNHYTQKSLSLSPGK
chain: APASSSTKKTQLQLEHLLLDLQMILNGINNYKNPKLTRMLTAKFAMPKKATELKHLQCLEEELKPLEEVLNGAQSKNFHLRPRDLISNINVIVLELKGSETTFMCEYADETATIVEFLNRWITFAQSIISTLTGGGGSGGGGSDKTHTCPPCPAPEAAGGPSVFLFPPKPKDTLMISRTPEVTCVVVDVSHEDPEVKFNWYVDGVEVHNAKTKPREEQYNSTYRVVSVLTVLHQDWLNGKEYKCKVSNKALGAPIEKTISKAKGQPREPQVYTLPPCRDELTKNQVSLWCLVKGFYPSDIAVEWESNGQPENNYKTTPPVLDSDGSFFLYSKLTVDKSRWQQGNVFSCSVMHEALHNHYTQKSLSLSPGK
notes: One-armed human PD1-targeted human IgG PG LALA with IL2v fused N-terminally to the hinge of the Fc knob chain (non-masked control); also called P1AG3071; P1AG3071-004
As for B2, the concentration giving a half-maximal response (EC50 (read off the curve)) was roughly 1 nM in test [1] and roughly 2 nM in test [2]. In addition, the “fold binding capacity versus the "in line" and knob/hole formats” value in test [4] was roughly 2 fold.

B3: murine TA PD1-IL2v, MT204, 2xPQARK, in line (antibody, mouse IgG1, kappa)
light: KIVLTQSPASLPVSLGQRATISCRASESVDTSDNSFIHWYQQRPGQSPKLLIYRSSTLESGVPARFSGSGSRTDFTLTIDPVEADDVATYYCQQNYDVPWTFGGGTKLEIKRADAAPTVSIFPPSSEQLTSGGASVVCFLNNFYPKDINVKWKIDGSERQNGVLNSWTDQDSKDSTYSMSSTLTLTKDEYERHNSYTCEATHKTSTSPIVKSFNRNEC
heavy 1: EVILVESGGGLVKPGGSLKLSCAASGFSFSSYTMSWVRQTPEKRLDWVATISGGGRDIYYPDSVKGRFTISRDNAKNTLYLEMSSLMSEDTALYYCVLLTGRVYFALDSWGQGTSVTVSSAKTTPPSVYPLAPGSAAQTNSMVTLGCLVKGYFPEPVTVTWNSGSLSSGVHTFPAVLQSDLYTLSSSVTVPSSTWPSQTVTCNVAHPASSTKVDKKIVPRDCGCKPCICTVPEVSSVFIFPPKPKDVLTITLTPKVTCVVVAISKDDPEVQFSWFVDDVEVHTAQTKPREEQINSTFRSVSELPIMHQDWLNGKEFKCRVNSAAFGAPIEKTISKTKGRPKAPQVYTIPPPKKQMAKDKVSLTCMITNFFPEDITVEWQWNGQPAENYKNTQPIMKTDGSYFVYSKLNVQKSNWEAGNTFTCSVLHEGLHNHHTEKSLSHSPG
heavy 2: EVILVESGGGLVKPGGSLKLSCAASGFSFSSYTMSWVRQTPEKRLDWVATISGGGRDIYYPDSVKGRFTISRDNAKNTLYLEMSSLMSEDTALYYCVLLTGRVYFALDSWGQGTSVTVSSAKTTPPSVYPLAPGSAAQTNSMVTLGCLVKGYFPEPVTVTWNSGSLSSGVHTFPAVLQSDLYTLSSSVTVPSSTWPSQTVTCNVAHPASSTKVDKKIVPRDCGCKPCICTVPEVSSVFIFPPKPKDVLTITLTPKVTCVVVAISKDDPEVQFSWFVDDVEVHTAQTKPREEQINSTFRSVSELPIMHQDWLNGKEFKCRVNSAAFGAPIEKTISKTKGRPKAPQVYTIPPPKEQMAKDKVSLTCMITNFFPEDITVEWQWNGQPAENYDNTQPIMDTDGSYFVYSDLNVQKSNWEAGNTFTCSVLHEGLHNHHTEKSLSHSPGGGGGSGGGGSGGGGGAPASSSTKKTQLQLEHLLLDLQMILNGINNYKNPKLTRMLTAKFAMPKKATELKHLQCLEEELKPLEEVLNGAQSKNFHLRPRDLISNINVIVLELKGSETTFMCEYADETATIVEFLNRWITFAQSIISTLTGGGGSGGGGSPQARKGGGGSGGGGSGGGGSGGGGSGGGEVQLVESGGGLVQPGGSLRLSCAASGFTFSSYTLAWVRQAPGKGLEWVAAIDSSSYTYSPDTVRGRFTISRDNAKNSLYLQMNSLRAEDTAVYYCARDSNWDALDYWGQGTTVTVSSGGGGSGGPQARKGGGGSGGGDIQMTQSPSSLSASVGDRVTITCKASQNVGTNVGWYQQKPGKAPKALIYSASFRYSGVPSRFSGSGSGTDFTLTISSLQPEDFATYYCQQYYTYPYTFGGGTKVEIK
notes: Murine surrogate: bivalent human PD1-targeted murine IgG DA PG with masked human IL2v in-line on the C-terminus of the Fc DD- chain, two PQARK sites; also called P1AG9983; P1AG9983-001
As to B3, the “EC50 (read off the curve)” value in test [5] and in test [6] was roughly 2 nM each time.

B4: murine PD1-IL2v, unmasked, in line (antibody, mouse IgG1, kappa)
light: B3 light
heavy 1: B3 heavy 1
heavy 2: EVILVESGGGLVKPGGSLKLSCAASGFSFSSYTMSWVRQTPEKRLDWVATISGGGRDIYYPDSVKGRFTISRDNAKNTLYLEMSSLMSEDTALYYCVLLTGRVYFALDSWGQGTSVTVSSAKTTPPSVYPLAPGSAAQTNSMVTLGCLVKGYFPEPVTVTWNSGSLSSGVHTFPAVLQSDLYTLSSSVTVPSSTWPSQTVTCNVAHPASSTKVDKKIVPRDCGCKPCICTVPEVSSVFIFPPKPKDVLTITLTPKVTCVVVAISKDDPEVQFSWFVDDVEVHTAQTKPREEQINSTFRSVSELPIMHQDWLNGKEFKCRVNSAAFGAPIEKTISKTKGRPKAPQVYTIPPPKEQMAKDKVSLTCMITNFFPEDITVEWQWNGQPAENYDNTQPIMDTDGSYFVYSDLNVQKSNWEAGNTFTCSVLHEGLHNHHTEKSLSHSPGGGGGSGGGGSGGGGGAPASSSTKKTQLQLEHLLLDLQMILNGINNYKNPKLTRMLTAKFAMPKKATELKHLQCLEEELKPLEEVLNGAQSKNFHLRPRDLISNINVIVLELKGSETTFMCEYADETATIVEFLNRWITFAQSIISTLT
notes: Murine surrogate: bivalent human PD1-targeted murine IgG DA PG with IL2v fused to the C-terminus of the Fc DD- chain (non-masked control); also called P1AG7552; P1AG7552-006
In the case of B4, the “EC50 (read off the curve)” value in test [5] and in test [6] was roughly 2 nM in each case.
